Measured values reported in the DeepSol protein solubility set.

Experiment: soluble on expression in E. coli; label from the status in PepcDB or PDB records

Sequence	soluble on expression in E. coli
MSLEGINPAVIMKAIMQSESVEQLSQEREKAEKLLKMYIAQDVAIHFISNIFTELNDALIVKAIEFSVADMKREGIDLPDIEFCWLSLGSEGRKEQLLRTDLDNAILFRDPENEASRETVQRVFLELGKRVTAILVACGFKPCPAEIMASNPEWCQPLSGWMNYFRKWIGTPEPKALMNSTIFFDFRPVYGSTALALEMKREINTEIARGRGFLQFFAKNALQNPPPLGFFRNFLVEKSREHAHEFDIKARALMPLSDAARVLACEFGVTDFLGTVERFRRIGQLLPSFQELAEEAAQGYEFLMRLRTEHGLAEKSSGRYIDPKHLNKMQRQKLRDLFTTIGKVQSMLNLRYQLDYIRAEGHHHHHH	soluble
MKSLDDLDFDNRFARLGGAFSTEVLPDPIAEPRLVVASPAALALLDLPAETSDEALFAELFGGHKLWSEAEPRAMVYSGHQFGSYNPRLGDGRGLLLGEVINQAGEHWDLHLKGAGQTPYSRMGDGRAVLRSSIREFLASEALPALGIPSSRALCVIGSSTPVWREKKESAATLLRLAPSHVRFGHFEYFYYTRQHDQLKQLAAFVLEHHFADCNAAERPYAAMFRQVVERNAELIARWQAYGFCHGVMNTDNMSILGITFDYGPYAFLDDFDANHICNHSDDAGRYSFSNQVPIAHWNLAALAQALTPLVEVDELRASLDLFLPLYQAHYLDLMRRRLGLGVAAENDHALVQELLQRMQGSAVDYSLFFRRLGEETPERALASLRDDFVDREAFDRWAEAYRRRVEEEGGDQESRRRRMHAVNPLYVLRNYLAQQAIEAAEQGDYTEVRLLHQVLSRPFEEQPGMERFTRRPPDWGRHLEISCSS	not soluble
MALEYVVTKRVFGFDKDKNEKYVAKSVRSGRVSFSKMCGKVSRLCGVHRKVVDLVVSGLVDMMAEDIDDGKSVQMGEFGIFSPTIRAKSADDEKEVSSKSIVQRKILFYPGKIFKTTLDDMSITRRAELDTDYTDGSSNNGSGSEKPNPGGDGGKDDEEAPDPTV	not soluble
MSLQDDIKEKKKLVVAVSPDYAPFEFKALVNGKDTVVGADIDLAKAIAKELGVKLELSSMSFDNVLSSLKTGKADIAISGLSYTKERAQAYDFSEAYYKTENAILIKKSDLNKYTMISSFNNKTKVAVQKGTIEEGLAKNQLKQSNITSLTSMGEAVNELKSGQVDAIDLEKPVAEGYVSQNSDLVLAKVALKTGEGDAKAVALPKDSGQLVKTVNKVIKKLKKEDKYKQFISDAVKLTGQQVDEGHHHHHH	soluble
MAGWRTVVVNTHSKLSYKNNHLIFKDAYKTELIHLSEIDILLLETTDIVLSTMLVKRLVDENVLVIFCDDKRLPTAMLMPFYGRHDSSLQLGKQMSWSETVKSQVWTTIIAQKILNQSCYLGACSYFEKSQSIMDLYHGLENFDPSNREGHAARIYFNTLFGNDFSRDLEHPINAGLDYGYTLLLSMFAREVVVSGCMTQFGLKHANQFNQFNFASDIMEPFRPLVDKIVYENRNQPFPKIKRELFTLFSDTFSYNGKEMYLTNIISDYTKKVVKALNNEGKGVPEFRI	not soluble
MGSDKIHHHHHHMMDARRNGLVLLALLLLTQTTISAQTDSMGKDVPIDSVSVATSDSLQTKRGFFKKFLDYFNDANKEKKNKKFDFSVIGGPHYSSDTKFGLGLVAAGLYRTDRNDSILPPSNVSLYGDVSTVGFYLLGVRGNHLFPQEKYRLNYNLYFYSFPSLYWGRGYDNGANSDNESDYKRFQAQVKVDFMFRVAKSFYIGPMAVFDYIDGRDFEKPELWEGMSARTTNTSLGLSLLYDSRDFLTNAYQGYYLRIDQRFSPAFLGNKYAFSSTELTTSYYHPVWKGGVLAGQFHTLLNYGNPPWGLMATLGSSYSMRGYYEGRYRDKCAMDAQIELRQHIWKRNGVAVWAGAGTVFPRFSDFTPKHILPNYGFGYRWEFKKRVNVRLDLGFGKHQTGFIFNINEAF	not soluble
MLQSTLLRKSIFYSLAHRRHVASVPLKDVFCDPENPKILQFGDISMAHHRIQNGIVRTDCRKSRCLSKLFDMNIYLKMEVNQDTGSFKERGARYALQNLPEEKKKAGVYAASAGNHALALSLHGKQLGVEVNVVMPKIAPLMKINRCQDLGANILVQGEDIAESREIALRMAHDSNGTYINGYDHYDILAGAGTTGIEILEQIQMPDAILVPVGGGGLVAGVATAVKALSPTTEVIGVVSETCQAIVKSLQAGHPVYTPTRPTLADGLAVPNAGVNAFASMIGKVDRVISVPENDIAVAILRLIENEKVVCEGAGAIGIGAILSGKLNHLKGKTVVSILSGGNIDSTSLGRCIERGLAYDHRVIRLSVIIPDKPGGLSKLTGLVGELSGNVRDLYLERAFMRNDMSSQRVKMVIEVRGEEHEMQLKQKFQEVYDPSNCQFKNNRLPRL	not soluble
MKHHHHHHPMVKEYKTITQIAGPLIFVEKTEPVGYNEIVNIKMGDGTVRRGQVLDSSADIVVVQVFEGTGGLDKDCGVIFTGETLKLPASVDLLGRILSGSGEPRDGGPRIVPDQLLDINGAAMNPYARLPPKDFIQTGISTIDGTNTLVRGQKLPIFSASGLPHNEIALQIARQASVPGSESAFAVVFAAMGITNEEAQYFMSDFEKTGALERAVVFLNLADDPAVERIVTPRMALTAAEYLAYEHGMHVLVILTDITNYAEALRQMGAARNEVPGRRGYPGYMYTDLATLYERAGIVKGAKGSVTQIPILSMPGDDITHPIPDLSGYITEGQIVVARELHRKGIYPPINVLPSLSRLMNSGIGAGKTREDHKAVSDQMYAGYAEGRDLRGLVAIVGKEALSERDTKFLEFADLFEDKFVRQGWNENRTIEDTLEIGWQILTHLPENQLGRIDNKYIQKYHPAHRKAK	soluble
MKRVFVTVGTTSFDDLIARVVAHDSVQILKNLGYNQLVLQIGRGTVVPEPFSTESFTLDVYRYKDSLKEDLQQADLVISHAGAGSCLESLEKGKPLVVVVNEKLMNNHQFELAKQLHREGHLFYCTCSMLPELLQSMDLSTLKCYPPGQPEKFSAFLDKVVGLQK	soluble
MGSDKIHHHHHHMAVTDKERKLAATLSDPVLWGQAYLYNRDGSGRDYWPHQVEDLRCPAKNIIHLDGRDVGKSIVLSTDALHYAFTTRGGQGLVAAPHQGHLDTIIEEIEFQLDTNPDLMNSIALTKYGKPKIHRKPYFRLEFTNGSVLYFRPAGAYGDAFRSLHVGRVWVDEGAWLTERAWKALRQCLKAGGTLRIYSTPNGLRDTTYYRLTSSEQFHVFRWPSWLNPLWTEDREAELLEFYGGRDSSGWQHEVAGEHGKPSYGAFNVEQFNLCRQDLLEYQKIVITDSELRDCDTEEAAHDRLEMLLNLTPRSGQFWVGGDLGYTNDPTEIVVFQEMEVGERTLLKMILRVHLEHVSYPHIAQIIALLERYYTPAGIGVDNGGNGLAVVQELLTLDKYKGLELEGRLKGYDFGGMTRLAVRDGKEIKKRTKELMTSLINGALQRKQLIFPSDDLEVEDQFTTHTYTLRDGKIIYSKGNDHIIDAVRCAMLIREEGNLDPVGEEVVSLKPVLTNPVFI	not soluble
GMDKYLSANSLEGVIDNEFSMPAPRWLNTYPAGPYRFINREFFIIAYETDPDLLQAILPPDMELLEPVVKFEFIRMPDSTGFGDYTESGQVVPVRYKGEEGGFTISMFLDCHAPIAGGREIWGFPKKLAKPKLFVEEDTLIGILKYGSIDIAIATMGYKHRPLDAEKVLESVKKPVFLLKNIPNVDGTPLVNQLTKTYLTDITVKGAWTGPGSLELHPHALAPISNLYIKKIVSVSHFITDLTLPYGKVVADYLA	soluble
MNGYIINIRYQQMGRVIYMFFFAIFGIQDKNKHIGNCNNIVCPSCGRLSMYEVYKYYKYFHIFFLPIFKWDVRYIVKTSCCGCLYELDPLVGKEFEKNPSTEIREENLQRIDRYSPFKYCSNCRTEVPVEYSYCPYCGERLLEHHHHHH	not soluble
MGSDKIHHHHHHMTQHVIEMREITKKFGDFVANDHINLNVRKGEIHALLGENGAGKSTLMNMLAGLLEPTSGEIVINDKPVQIDSPSKSAKLGIGMVHQHFMLVEAFTVAENIILGNEVVKNGCLDLNQASKDIKVLSEKYGLAINPSAKVSDISVGAQQRVEILKTLYRGADILIFDEPTAVLTPAEIKELMTIMKNLVKEGKSIILITHKLDEIRAVADRVTVIRRGKSIETVDVAGATSQDLAEMMVGRSVSFTTSKKAAEPKDVVLSIKNLEVDENRGVPAVKGLSLDVRAGEIVGIAGIDGNGQSELIQAITGLRKVKSGSIMIKNNEVTHLSSRKITELSVGHVPEDRHRDGLILDLSLAENTALQTYYKQPLSQNGILNYTKINDYARQLMKEFDVRGANELVPARGFSGGNQQKAIIAREVDRDPDLLIVSQPTRGLDVGAIEYIHKRLIKERDKGKAVLVVSFELDEILNLSDRIAVIHDGKIQGIVSPENTNKQELGILMAGGSIHKEEGHV	not soluble
